{"source": "FireProtDB (doi:10.1006/jmbi.1999.2772)", "details": "Thermotoga maritima (strain ATCC 43589 / DSM 3109 / JCM 10099 / NBRC 100826 / MSB8), Thermal, DSC", "key": {"[1]": {"details": "pH 4, Sodium acetate 20 mM, reversible: yes"}, "[2]": {"details": "pH 4.5, Sodium acetate 20 mM, reversible: yes(94%)"}, "[3]": {"details": "pH 4.8, Sodium acetate 20 mM, reversible: yes(91%)"}, "[4]": {"details": "pH 5.7, Sodium cacodylate-HCl 20 mM, reversible: yes(97%)"}, "[5]": {"details": "pH 6, Sodium cacodylate-HCl 20 mM, reversible: yes(98%)"}, "[6]": {"details": "pH 6.1, Sodium cacodylate-HCl 20 mM, reversible: yes(97%)"}, "[7]": {"details": "pH 6.35, Sodium cacodylate-HCl 20 mM, reversible: yes"}, "[8]": {"details": "pH 6.75, Sodium cacodylate-HCl 20 mM, reversible: yes"}, "[9]": {"details": "pH 7, Sodium cacodylate-HCl 20 mM, reversible: yes(95%)"}, "[10]": {"details": "pH 7.2, Sodium phosphate 20 mM, reversible: yes(97%)"}, "[11]": {"details": "pH 7.25, Sodium cacodylate-HCl 20 mM, reversible: yes(98%)"}, "[12]": {"details": "pH 7.4, Sodium phosphate 20 mM, reversible: yes(98%)"}, "[13]": {"details": "pH 7.5, Sodium phosphate 20 mM, reversible: yes(97%)"}, "[14]": {"details": "pH 8.1, borate-NaOH 20 mM, reversible: yes(99%)"}, "[15]": {"details": "pH 8.4, borate-NaOH 20 mM, reversible: yes(97%)"}, "[16]": {"details": "pH 8.5, borate-NaOH 20 mM, reversible: yes(98%)"}, "[17]": {"details": "pH 8.9, borate-NaOH 20 mM, reversible: yes"}}}
{"substance": "Cold shock-like protein wild type, O54310", "values": [{"measurement": "Tm", "setting": "[1]", "result": 87.9, "unit": "°C"}, {"measurement": "heat capacity change of unfolding", "setting": "[1]", "result": 0.36, "unit": "kcal/mol/K"}, {"measurement": "unfolding enthalpy (calorimetric)", "setting": "[1]", "result": 50.1, "unit": "kcal/mol"}, {"measurement": "Tm", "setting": "[2]", "result": 91.6, "unit": "°C"}, {"measurement": "heat capacity change of unfolding", "setting": "[2]", "result": 0.05, "unit": "kcal/mol/K"}, {"measurement": "unfolding enthalpy (calorimetric)", "setting": "[2]", "result": 56.2, "unit": "kcal/mol"}, {"measurement": "Tm", "setting": "[3]", "result": 94.1, "unit": "°C"}, {"measurement": "heat capacity change of unfolding", "setting": "[3]", "result": 0.22, "unit": "kcal/mol/K"}, {"measurement": "unfolding enthalpy (calorimetric)", "setting": "[3]", "result": 62, "unit": "kcal/mol"}, {"measurement": "unfolding enthalpy (van 't Hoff)", "setting": "[3]", "result": 57, "unit": "kcal/mol"}, {"measurement": "Tm", "setting": "[4]", "result": 93.3, "unit": "°C"}, {"measurement": "heat capacity change of unfolding", "setting": "[4]", "result": 0.08, "unit": "kcal/mol/K"}, {"measurement": "unfolding enthalpy (calorimetric)", "setting": "[4]", "result": 71.9, "unit": "kcal/mol"}, {"measurement": "unfolding enthalpy (van 't Hoff)", "setting": "[4]", "result": 68.3, "unit": "kcal/mol"}, {"measurement": "Tm", "setting": "[5]", "result": 92.1, "unit": "°C"}, {"measurement": "heat capacity change of unfolding", "setting": "[5]", "result": 0.17, "unit": "kcal/mol/K"}, {"measurement": "unfolding enthalpy (calorimetric)", "setting": "[5]", "result": 74.6, "unit": "kcal/mol"}, {"measurement": "unfolding enthalpy (van 't Hoff)", "setting": "[5]", "result": 71, "unit": "kcal/mol"}, {"measurement": "Tm", "setting": "[6]", "result": 91.2, "unit": "°C"}, {"measurement": "heat capacity change of unfolding", "setting": "[6]", "result": 0.55, "unit": "kcal/mol/K"}, {"measurement": "unfolding enthalpy (calorimetric)", "setting": "[6]", "result": 69.5, "unit": "kcal/mol"}, {"measurement": "unfolding enthalpy (van 't Hoff)", "setting": "[6]", "result": 64.5, "unit": "kcal/mol"}, {"measurement": "Tm", "setting": "[7]", "result": 89.6, "unit": "°C"}, {"measurement": "heat capacity change of unfolding", "setting": "[7]", "result": 0.5, "unit": "kcal/mol/K"}, {"measurement": "unfolding enthalpy (calorimetric)", "setting": "[7]", "result": 68, "unit": "kcal/mol"}, {"measurement": "unfolding enthalpy (van 't Hoff)", "setting": "[7]", "result": 63, "unit": "kcal/mol"}, {"measurement": "Tm", "setting": "[8]", "result": 85.8, "unit": "°C"}, {"measurement": "heat capacity change of unfolding", "setting": "[8]", "result": 0.18, "unit": "kcal/mol/K"}, {"measurement": "unfolding enthalpy (calorimetric)", "setting": "[8]", "result": 65, "unit": "kcal/mol"}, {"measurement": "unfolding enthalpy (van 't Hoff)", "setting": "[8]", "result": 58.3, "unit": "kcal/mol"}, {"measurement": "Tm", "setting": "[9]", "result": 82, "unit": "°C"}, {"measurement": "heat capacity change of unfolding", "setting": "[9]", "result": 0.36, "unit": "kcal/mol/K"}, {"measurement": "unfolding enthalpy (calorimetric)", "setting": "[9]", "result": 62.6, "unit": "kcal/mol"}, {"measurement": "unfolding enthalpy (van 't Hoff)", "setting": "[9]", "result": 60.8, "unit": "kcal/mol"}, {"measurement": "Tm", "setting": "[10]", "result": 83.1, "unit": "°C"}, {"measurement": "heat capacity change of unfolding", "setting": "[10]", "result": 0.22, "unit": "kcal/mol/K"}, {"measurement": "unfolding enthalpy (calorimetric)", "setting": "[10]", "result": 65.3, "unit": "kcal/mol"}, {"measurement": "unfolding enthalpy (van 't Hoff)", "setting": "[10]", "result": 61, "unit": "kcal/mol"}, {"measurement": "Tm", "setting": "[11]", "result": 82.8, "unit": "°C"}, {"measurement": "heat capacity change of unfolding", "setting": "[11]", "result": 0.4, "unit": "kcal/mol/K"}, {"measurement": "unfolding enthalpy (calorimetric)", "setting": "[11]", "result": 61.3, "unit": "kcal/mol"}, {"measurement": "unfolding enthalpy (van 't Hoff)", "setting": "[11]", "result": 57.5, "unit": "kcal/mol"}, {"measurement": "Tm", "setting": "[12]", "result": 80.8, "unit": "°C"}, {"measurement": "heat capacity change of unfolding", "setting": "[12]", "result": 0.38, "unit": "kcal/mol/K"}, {"measurement": "unfolding enthalpy (calorimetric)", "setting": "[12]", "result": 60.8, "unit": "kcal/mol"}, {"measurement": "unfolding enthalpy (van 't Hoff)", "setting": "[12]", "result": 55.7, "unit": "kcal/mol"}, {"measurement": "Tm", "setting": "[13]", "result": 81.1, "unit": "°C"}, {"measurement": "heat capacity change of unfolding", "setting": "[13]", "result": 0.11, "unit": "kcal/mol/K"}, {"measurement": "unfolding enthalpy (calorimetric)", "setting": "[13]", "result": 54.4, "unit": "kcal/mol"}, {"measurement": "unfolding enthalpy (van 't Hoff)", "setting": "[13]", "result": 50.4, "unit": "kcal/mol"}, {"measurement": "Tm", "setting": "[14]", "result": 81, "unit": "°C"}, {"measurement": "heat capacity change of unfolding", "setting": "[14]", "result": 0.01, "unit": "kcal/mol/K"}, {"measurement": "unfolding enthalpy (calorimetric)", "setting": "[14]", "result": 54.7, "unit": "kcal/mol"}, {"measurement": "unfolding enthalpy (van 't Hoff)", "setting": "[14]", "result": 51, "unit": "kcal/mol"}, {"measurement": "Tm", "setting": "[15]", "result": 77.5, "unit": "°C"}, {"measurement": "heat capacity change of unfolding", "setting": "[15]", "result": 0.5, "unit": "kcal/mol/K"}, {"measurement": "unfolding enthalpy (calorimetric)", "setting": "[15]", "result": 56.1, "unit": "kcal/mol"}, {"measurement": "Tm", "setting": "[16]", "result": 77.6, "unit": "°C"}, {"measurement": "heat capacity change of unfolding", "setting": "[16]", "result": 0.06, "unit": "kcal/mol/K"}, {"measurement": "unfolding enthalpy (calorimetric)", "setting": "[16]", "result": 53.9, "unit": "kcal/mol"}, {"measurement": "unfolding enthalpy (van 't Hoff)", "setting": "[16]", "result": 51.7, "unit": "kcal/mol"}, {"measurement": "Tm", "setting": "[17]", "result": 75.5, "unit": "°C"}, {"measurement": "heat capacity change of unfolding", "setting": "[17]", "result": 0.5, "unit": "kcal/mol/K"}, {"measurement": "unfolding enthalpy (calorimetric)", "setting": "[17]", "result": 56.1, "unit": "kcal/mol"}]}
